± gives the half width of the 95% confidence interval.
Columns and labels:
[1] = folding stability dG unfold from trypsin proteolysis; higher = more stable
Experimental: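 Folding stability of de novo designed mini-proteins (<80 aa, no Cys; designed by TrROS, TrMRF, ProteinMPNN and the joint model) was measured by cDNA display proteolysis with trypsin and chymotrypsin. Each protease was used at 11 concentrations in a threefold dilution series plus a no-protease condition. K50 was inferred by Bayesian fitting of sequencing counts, and dG unfold was derived against a sequence-predicted unfolded-state K50 (Tsuboyama et al. method). Sequences shown include variable-length N-terminal GS-type padding (SAGGSAGG...) inside a display construct carrying a PA tag. Rows were kept only if the AF2 dimer inter-PAE was >15, to exclude likely homo-oligomers.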

[2] = folding stability dG unfold from chymotrypsin proteolysis; higher = more stable
How it was run: (§1)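 Mini-proteins designed to be under 80 residues and free of cysteine were carried in a PA-tagged cDNA display construct and digested with trypsin and with chymotrypsin. Each protease was applied at 11 threefold-diluted concentrations, alongside a no-protease condition, before sequencing. K50 came from Bayesian fitting of the sequencing counts, and unfolding free energy was obtained by comparing it with a sequence-predicted unfolded-state K50 and a shared folded-state K50, for each protease separately or for both together. Designs were retained only if their AlphaFold2 dimer inter-PAE exceeded 15.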

[3] = folding stability dG unfold (combined trypsin and chymotrypsin); higher = more stable
How it was run: as §1

Row | Sequence | folding stability dG unfold [1] | folding stability dG unfold [2] | folding stability dG unfold [3]
1 | KTYTIDEIAEKLGMSKEELKNMSAEEIKEALKKLLPPEEIEKVEISYNEKDKKVTITVTLKNGEKVEITIDS [r1_340_TrROS_Hall] | 4.04 ± 0.71 kcal/mol | 5.06 ± 0.23 kcal/mol | –
2 | SAGGSTTITVPEEELEKKTGIPLGTPPEEVARKLDPVAKVTVTAVSSEKGPNGEPKRTVTFEVTPPQLSAGG [r13_723_JUSTAS] | -0.236 ± 0.14 kcal/mol | – | < -1 kcal/mol
3 | SAGGWRMEIEFPGINPEELRKAIAEAPGNKDVDVDVERIPKDGSVKIEMHGNNPADRKRIQKAVKKAFSAGG [r13_580_TrROS] | -0.928 ± 0.47 kcal/mol | – | < -1 kcal/mol
4 | SAGKNPGPVLILADGGEEGVKAVAYFPDGPLETEFPGSGDIAIVIPPGLTPSDVLKAAAVALKEAAESSAGG [r19_170_TrMRF] | 0.396 ± 0.037 kcal/mol | – | -0.337 ± 0.24 kcal/mol
5 | SAGLTAKITSVTEENGTLTVTVEVTAPDGSTFTFTATFRIEPAPAPPVKVTVETDADGNVTVTVETLDSAGG [r19_172_TrROS_Hall] | 5.13 ± 0.28 kcal/mol | – | > 6 kcal/mol
6 | SAGMSLKLEVPIDGHMIEVTVHPSPPRATAKYPEFDATAEATISEPGLINLTITDPKTGKPYPLDVTLPSAG [r14_656_JUSTAS] | 0.621 ± 0.023 kcal/mol | – | 0.152 ± 0.1 kcal/mol
7 | SAGMTITKTEEFPKGPGSVTRTTVTLPNGKVVVEETITLEDPSVTKTVTKTIEPADGTVLETTTTTVPASAG [r5_108_JUSTAS] | 0.302 ± 0.16 kcal/mol | – | -0.418 ± 0.3 kcal/mol
8 | SAGMTVEEVAAEIIASHPPSSTSVTLEVDVGPKPVRVTVEILPDPETGRPVPRVTVTDPNKNVTTEYVVSAG [r5_236_JUSTAS] | -0.173 ± 0.052 kcal/mol | – | -0.632 ± 0.39 kcal/mol
9 | SAGMVKVSLEKNPNGTPVVTVDVNEEGGPPVTVTLPVDPNETLSKVSAVLKKEGYPLPAGKKISELLSSAGG [r19_263_JUSTAS] | -0.72 ± 0.25 kcal/mol | – | < -1 kcal/mol
10 | SAGMVTFIDTTPGKAVVAVEDPATGTSRTIELDLDSPDGRPASLEEIKKVVEELVKEERPDLTVDVKLASAG [r5_293_JUSTAS] | -0.506 ± 0.15 kcal/mol | – | < -1 kcal/mol
11 | SAGPKNAKPIGTVRIRNPNGRKINIMQWPNPIMVHIKPPDGKKREVPIRGAPMEEILDELAEDGWEVEPSAG [r5_613_TrROS] | -0.489 ± 0.63 kcal/mol | – | < -1 kcal/mol
12 | SAGPKVVKIEFLEDNTAKITVEVGSKPVEVEVPVGSVFLIPGGEKIEVIEPGKAKVSPLPEVDVDPEKSAGG [r19_17_TrMRF] | -0.848 ± 0.33 kcal/mol | – | < -1 kcal/mol
13 | SAGPPNMEPVETHTFPFPGKKIKIKVYRNPDGHVKIKLEDPGKKIEQSAPVPPGEPVEIPIRLPNGKPISAG [r5_878_TrROS] | -0.904 ± 0.52 kcal/mol | – | < -1 kcal/mol
14 | SAGSAKELAKEIADTIADEMQDRHPGFKPTEVEVKEIEVNPENGWVKINIEMRFPNGKPIWKPEITIPSAGG [r19_53_TrROS] | -0.0323 ± 0.058 kcal/mol | – | -0.557 ± 0.25 kcal/mol
15 | SAGSMTVSESTENGVRTTTVTLPSRPLTVTVTFPDGKVTATTTDPAAPEAATTTPLGTPAVETLIAELSSAG [r14_716_JUSTAS] | 0.083 ± 0.051 kcal/mol | – | -0.609 ± 0.3 kcal/mol
16 | SAGSPIDLGEVEVEEKPVETDPATGLTTTETVITAPDGRPVFVKYTTKDPATGTTTVTETPVGVDPELTSAG [r5_200_JUSTAS] | -0.556 ± 0.096 kcal/mol | – | < -1 kcal/mol
17 | SAGSSSTTIEVPVGDPAKAGSVEEYKEKLIKEGFSESDVPTATPLPDGTRLVTFKSPSTTVTLVVPLGESAG [r5_144_JUSTAS] | -0.341 ± 0.056 kcal/mol | – | -0.846 ± 0.2 kcal/mol
18 | SAGSTVEVLEERPLEDGSVLVRVRVDDAAPDGSPVAVVDVLVLPGGEAVMTFPDGTPVRLPLSELGLPPSAG [r5_137_JUSTAS] | 0.108 ± 0.14 kcal/mol | – | -0.319 ± 0.2 kcal/mol
19 | SAGVTVERKPGDGSLTVTVPADDGPLTIEVDLLPNTGTLKATVTYDDGTPATYTFPGGTLEDIIERLHSAGG [r19_159_TrMRF] | -0.0867 ± 0.088 kcal/mol | – | -0.153 ± 0.22 kcal/mol
20 | SAKIPAEEIAEEIAENFGFEPVEVDEIDPDEGKIIIRFPGWQIEVEVDPEDGEIEIEMEFYDPEDGKPFSAG [r14_270_TrROS] | 0.46 ± 0.045 kcal/mol | – | -0.0386 ± 0.18 kcal/mol
21 | SAKLTPEEIEELAEKLAKELAEKEGIEKVEVKVEKKEDGKVTVEIRFEKNKKTIRIEFENGEVKIVEIESAG [r14_925_TrROS_Hall] | 2.62 ± 0.39 kcal/mol | – | 2.97 ± 0.72 kcal/mol

Row | Sequence | folding stability dG unfold [1] | folding stability dG unfold [2] | folding stability dG unfold [3]
22 | SAMDIEIEPTEGMMEIKLPGKEIHIMQHPNYMHIQIKYPEGEPVSIPIDPNSPPEDMIDNLLKLLEKAGSAG [r14_618_TrROS] | 0.425 ± 0.042 kcal/mol | – | -0.499 ± 0.55 kcal/mol
23 | SAMLVVLKDPKTGKLILVDPEQLSPEYLERGVEPVREIPPLEVVEVESEEEAEEIRKKYPEKILVTLGPSAG [r14_638_JUSTAS] | 0.68 ± 0.1 kcal/mol | – | -0.121 ± 0.26 kcal/mol
24 | SANFDKAPPIEVKTEVSSFPADEEKIDPKTGKKSKRKRTITPVTVTKDGKTYTSTTTTYPDGSTETTTSSAG [r14_225_JUSTAS] | -0.0456 ± 0.2 kcal/mol | – | -0.249 ± 0.24 kcal/mol
25 | SAPDNIKVDINIERNPEDGHIRVEMEIEYPDGNEVYHSAWIDPDNGKIEIDVQVPNGKQIAEETIQIKPSAG [r14_524_TrROS] | 0.166 ± 0.097 kcal/mol | – | < -1 kcal/mol
26 | SAPVKDKNGKKREVEIHIWVPEEERKKNGTPEQIKWLARERARAAGLKPDRIKEVKIKIMPPEDMPEGFSAG [r14_446_TrROS] | -0.729 ± 0.54 kcal/mol | – | < -1 kcal/mol
27 | SDLRNMPIEELAKRIAREHGIEDVKVEVSRTGDSLTIPIEIRDPEQGMKYKVMIMVDPPDDGRIGIGVERSA [r9_1042_TrROS] | 0.275 ± 0.29 kcal/mol | – | 0.0221 ± 0.42 kcal/mol
28 | SETVTIEVEIEVKLPDGSTYRVRLTVEFDKETGKITLKMTVEYNGKTYEVELSEEEIKALLDELLKKLGLSA [r9_1136_TrROS_Hall] | 4.22 ± 0.29 kcal/mol | – | > 6 kcal/mol
29 | SFRIEPDPDGTVTVRIPKDFPNKPAEEIADYIQKAFGPGMKIDKDIKIEPDPENGWVEITVKVKLPPGAKSA [r9_1011_TrROS] | 0.913 ± 0.16 kcal/mol | – | 0.0899 ± 0.33 kcal/mol
30 | SIERPGGEPVTLTVTVERPPGVRTTRTFTTPASELEARRGRDVTDEEIIAAVKEELAAAGDRALAVTVDRTS [r1_338_JUSTAS] | -0.807 ± 0.68 kcal/mol | – | < -1 kcal/mol
31 | SKEILEAEVEEILKLLPESLKPDVPRELVFPGVKITVTKYEPVDKNKGGKKPTTVVTIELPEGPVTIPLPSA [r9_279_JUSTAS] | 0.548 ± 0.034 kcal/mol | – | -0.531 ± 0.18 kcal/mol
32 | SKTVEIPIRNPNGMQVNIMANPEKGKVMIHMGNNMPFENIKKALRELLPPGKDVDITTHPNGMAVIELKPSA [r9_933_TrROS] | -0.277 ± 0.19 kcal/mol | – | -0.734 ± 0.43 kcal/mol
33 | SMEIKVTVEEKDGKKYVTIEIKLSEEELKGKELTEEEIEELARELAKKLGIKEVKIERLPNGTYRIVIELSA [r9_883_TrROS_Hall] | 4.47 ± 0.39 kcal/mol | – | > 6 kcal/mol
34 | SMKLKITIPLPGNNEINIEIEIKPYFDPNTKKLYFEANIKVTFTYYIPGFDKPFSFTSEFKFRFELSDDLSA [r9_140_TrMRF] | 4.46 ± 0.16 kcal/mol | – | > 6 kcal/mol
35 | SMLTSPDGTSVTIETKVSPSAGPLPPFFEQTYDPSKDTITVNAPASPEEVAAIRAAPGLETLAVTFTPAESA [r9_827_JUSTAS] | -0.874 ± 0.23 kcal/mol | – | < -1 kcal/mol
36 | SMRLVPVPVRSADGRASVDEIRAAIREALPEGLRVDFGEEFIERALREAERRYGGRLRPDDFPILVPVLGSA [r9_197_TrMRF] | -0.209 ± 0.15 kcal/mol | – | < -1 kcal/mol
37 | SMYRIEVVRDGKPIPREAVEAAAEAIERARGRPISPEALARELASVPNTVVTVEAYDEPGKPLGTLTFAESA [r9_1045_TrMRF] | -0.253 ± 0.17 kcal/mol | – | -0.703 ± 0.37 kcal/mol
38 | SPIILPGASTVTINATVTVEPRDPATGTVLSSRDLPVPVTVTTNADGTVTITVDVPADVPADAAVTVDLTSA [r9_90_JUSTAS] | 0.239 ± 0.018 kcal/mol | – | -0.338 ± 0.1 kcal/mol
39 | SPKIEIEPMPPNMFIAKIRDPEKNKKVSIHIPPNMPPGQPMQVYDPDKPKWVPFNEIEELLKKGLPVEIYSA [r9_250_TrROS] | 0.0989 ± 0.23 kcal/mol | – | -0.496 ± 0.98 kcal/mol
40 | SPLTPEQIEELAKEIAQEFPNVKVKIYPNDEPIEIKAPGAEIEIWPPPGEFYIQIEFPGNGKPKQIPIPPSA [r9_1062_TrROS] | 0.00765 ± 0.051 kcal/mol | – | -0.583 ± 0.25 kcal/mol
41 | SYRPITIQMPSPEDLKKLEEAFEDDGFENVNIHRDPPGWHTITITQKGPPEQLQDRIREAFDENGFQIQPSA [r9_1003_TrROS] | 0.0855 ± 0.11 kcal/mol | – | < -1 kcal/mol

Source: the supplement of paper PMC12764529
